{"source": "patent US20200164059A1", "key": {"[1]": {"target": "gp350 on EBV virions (Epstein Barr virus) (UniProt P03200)", "experiment": "cell-based or functional assay"}, "[2]": {"target": "gH/gL on EBV virions (Epstein Barr virus) (UniProt P03231)", "experiment": "cell-based or functional assay"}, "[3]": {"target": "EBV gH/gL heterodimer, recombinant ectodomain (Epstein Barr virus)", "experiment": "BLI kinetics, pH 5.0, ligand CL40 Mab, analyte gH/gL; KD M x10^-9"}, "[4]": {"target": "EBV gH/gL heterodimer, recombinant ectodomain (Epstein Barr virus)", "experiment": "BLI kinetics, pH 7.4, ligand CL40 Mab, analyte gH/gL; KD M x10^-9"}, "[5]": {"target": "EBV gH/gL heterodimer, recombinant ectodomain (Epstein Barr virus)", "experiment": "BLI kinetics, pH 5.0, ligand CL40 Mab, analyte gH/gL; KA M^-1 x10^7"}, "[6]": {"target": "EBV gH/gL heterodimer, recombinant ectodomain (Epstein Barr virus)", "experiment": "BLI kinetics, pH 7.4, ligand CL40 Mab, analyte gH/gL; KA M^-1 x10^7"}, "[7]": {"target": "EBV gH/gL heterodimer, recombinant ectodomain (Epstein Barr virus)", "experiment": "BLI kinetics, pH 5.0, ligand CL40 Mab, analyte gH/gL; kon (1/Ms) x10^5"}, "[8]": {"target": "EBV gH/gL heterodimer, recombinant ectodomain (Epstein Barr virus)", "experiment": "BLI kinetics, pH 7.4, ligand CL40 Mab, analyte gH/gL; kon (1/Ms) x10^5"}, "[9]": {"target": "EBV gH/gL heterodimer, recombinant ectodomain (Epstein Barr virus)", "experiment": "BLI kinetics, pH 5.0, ligand CL40 Mab, analyte gH/gL; koff (1/s) x10^-3"}, "[10]": {"target": "EBV gH/gL heterodimer, recombinant ectodomain (Epstein Barr virus)", "experiment": "BLI kinetics, pH 7.4, ligand CL40 Mab, analyte gH/gL; koff (1/s) x10^-3"}, "[11]": {"target": "EBV gH/gL heterodimer, recombinant ectodomain (Epstein Barr virus)", "experiment": "BLI kinetics, pH 5.0, ligand CL59 Mab, analyte gH/gL; KD M x10^-9"}, "[12]": {"target": "EBV gH/gL heterodimer, recombinant ectodomain (Epstein Barr virus)", "experiment": "BLI kinetics, pH 7.4, ligand CL59 Mab, analyte gH/gL; KD M x10^-9"}, "[13]": {"target": "EBV gH/gL heterodimer, recombinant ectodomain (Epstein Barr virus)", "experiment": "BLI kinetics, pH 5.0, ligand CL59 Mab, analyte gH/gL; KA M^-1 x10^7"}, "[14]": {"target": "EBV gH/gL heterodimer, recombinant ectodomain (Epstein Barr virus)", "experiment": "BLI kinetics, pH 7.4, ligand CL59 Mab, analyte gH/gL; KA M^-1 x10^7"}, "[15]": {"target": "EBV gH/gL heterodimer, recombinant ectodomain (Epstein Barr virus)", "experiment": "BLI kinetics, pH 5.0, ligand CL59 Mab, analyte gH/gL; kon (1/Ms) x10^5"}, "[16]": {"target": "EBV gH/gL heterodimer, recombinant ectodomain (Epstein Barr virus)", "experiment": "BLI kinetics, pH 7.4, ligand CL59 Mab, analyte gH/gL; kon (1/Ms) x10^5"}, "[17]": {"target": "EBV gH/gL heterodimer, recombinant ectodomain (Epstein Barr virus)", "experiment": "BLI kinetics, pH 5.0, ligand CL59 Mab, analyte gH/gL; koff (1/s) x10^-3"}, "[18]": {"target": "EBV gH/gL heterodimer, recombinant ectodomain (Epstein Barr virus)", "experiment": "BLI kinetics, pH 7.4, ligand CL59 Mab, analyte gH/gL; koff (1/s) x10^-3"}, "[19]": {"target": "EBV gH/gL heterodimer, recombinant ectodomain (Epstein Barr virus)", "experiment": "BLI kinetics, pH 7.4, ligand gH/gL, analyte gp42; KD M x10^-9"}, "[20]": {"target": "EBV gH/gL heterodimer, recombinant ectodomain (Epstein Barr virus)", "experiment": "BLI kinetics, pH 7.4, ligand gH/gL, analyte gp42; KA M^-1 x10^7"}, "[21]": {"target": "EBV gH/gL heterodimer, recombinant ectodomain (Epstein Barr virus)", "experiment": "BLI kinetics, pH 7.4, ligand gH/gL, analyte gp42; kon (1/Ms) x10^5"}, "[22]": {"target": "EBV gH/gL heterodimer, recombinant ectodomain (Epstein Barr virus)", "experiment": "BLI kinetics, pH 7.4, ligand gH/gL, analyte gp42; koff (1/s) x10^-3"}, "[23]": {"target": "EBV gH/gL heterodimer, recombinant ectodomain (Epstein Barr virus)"}, "[24]": {"target": "EBV gH/gL heterodimer, recombinant ectodomain (Epstein Barr virus)", "experiment": "BLI kinetics, pH 7.4, ligand gH/gL, analyte gp42 T175A; KD M x10^-9"}}, "note": "Read-outs that look alike come from different tables or passages of the source.", "data": [{"substance": "72A1 (antibody)", "values": [{"measurement": "neutralization of B95.8/F EBV infection of B (Raji) cells, IC50", "setting": "[1]", "result": 0.08, "unit": "µg/mL"}]}, {"substance": "CL40 (antibody)", "values": [{"measurement": "concentration reducing B cell (Raji) infection to 50%", "setting": "[2]", "result": 14.6, "unit": "µg/mL"}, {"measurement": "fold decrease in fold potency against AMMO1, B cell (Raji) infection", "setting": "[2]", "result": 100, "unit": "fold"}, {"measurement": "Kd", "setting": "[3]", "result": 5.99, "unit": "nM"}, {"measurement": "Kd", "setting": "[4]", "result": 6.77, "unit": "nM"}, {"measurement": "Ka", "setting": "[5]", "result": "1.67e+08", "unit": "M⁻¹"}, {"measurement": "Ka", "setting": "[6]", "result": "1.48e+08", "unit": "M⁻¹"}, {"measurement": "kon", "setting": "[7]", "result": 594000, "unit": "M⁻¹ s⁻¹"}, {"measurement": "kon", "setting": "[8]", "result": 469000, "unit": "M⁻¹ s⁻¹"}, {"measurement": "koff", "setting": "[9]", "result": 0.00356, "unit": "s⁻¹"}, {"measurement": "koff", "setting": "[10]", "result": 0.00318, "unit": "s⁻¹"}]}, {"substance": "CL59 (antibody)", "values": [{"measurement": "Kd", "setting": "[11]", "result": 5.52, "unit": "nM"}, {"measurement": "Kd", "setting": "[12]", "result": 6.39, "unit": "nM"}, {"measurement": "Ka", "setting": "[13]", "result": "1.81e+08", "unit": "M⁻¹"}, {"measurement": "Ka", "setting": "[14]", "result": "1.57e+08", "unit": "M⁻¹"}, {"measurement": "kon", "setting": "[15]", "result": 337000, "unit": "M⁻¹ s⁻¹"}, {"measurement": "kon", "setting": "[16]", "result": 438000, "unit": "M⁻¹ s⁻¹"}, {"measurement": "koff", "setting": "[17]", "result": 0.00186, "unit": "s⁻¹"}, {"measurement": "koff", "setting": "[18]", "result": 0.0028, "unit": "s⁻¹"}]}, {"substance": "EBV gp42, recombinant ectodomain", "values": [{"measurement": "Kd", "setting": "[19]", "result": 1.28, "unit": "nM"}, {"measurement": "Ka", "setting": "[20]", "result": "7.84e+08", "unit": "M⁻¹"}, {"measurement": "kon", "setting": "[21]", "result": 224000, "unit": "M⁻¹ s⁻¹"}, {"measurement": "koff", "setting": "[22]", "result": 0.000286, "unit": "s⁻¹"}]}, {"substance": "gp42 T175A, recombinant ectodomain", "values": [{"measurement": "Ka", "setting": "[23]", "result": "4.85e+08", "unit": "M⁻¹"}, {"measurement": "koff", "setting": "[23]", "result": 0.000299, "unit": "s⁻¹"}, {"measurement": "kon", "setting": "[23]", "result": 145000, "unit": "M⁻¹ s⁻¹"}, {"measurement": "Kd", "setting": "[24]", "result": 2.06, "unit": "nM"}]}]}
